# Assay results as given in paper PMC12002104, “Identification and Protein Engineering of Galactosidases for the Conversion of Blood Type B to Blood Type O” (Chembiochem, 2025).
# B1: BfGalB (Bacteroides fragilis NCTC 9343) (protein)
# chain: QERVYDISQFGLKANSKKNASPVVRKAIAKIKAECRDGEKVILRFPAGRYNFHEAGSTVREYYISNHDQDNPKKVGIALEDMKNLTIDGQGSEFVFYGRMIPVSLLRSENCVLKNFSIDFEQPHIAQVQVVENDPEKGITFEPAPWVDYRISKDSVFEGLGEGWVMRYSWGIAFDGKTKHVVYNTSDIGCPTKGAFEVAPRRICSPKWKDARLVPGTVVAMRGWGRPTPGIFMSHDVNTSLLDVKVHYAEGMGLLAQLCEDITLDGFGVCLKGDNDPRYFTTQADATHFSGCKGKIVSKNGLYEGMMDDAINVHGTYLKVIKRVDDHTLIGRYMHDQSWGFEWGRPGDDVQFVRSETMELIGKQNQITAIRPYDKGEIRGAREFSITFKEAIDPAINEKSGFGIENLTWTPEVLFAGNTIRNNRARGTLFSTPKKTVVEDNLFDHTSGTAILLCGDCNGWFETGACRDVTIRRNRFINALTNMFQFTNAVISIYPEIPNLKDQQKYFHGGKDGGIVIEDNEFDTFDAPILYAKSVDGLIFRNNVIKTNTEFKPFHWNKDRFLLERVTNVKISE
# notes: recombinant, E. coli BL21 Gold (DE3), pET28(a), N-terminal His-tag, thrombin site
# What was measured:
# [1] = tested on: T1, O=[N+]([O-])c1ccc(O[C@H]2O[C@H](CO)[C@H](O)[C@H](O)[C@H]2O)cc1; assay: purified protein; assay type: biochemical, Pedobacter panaciterrae
# T1 construct: recombinant, E. coli BL21 Gold (DE3), pET28(a), N-terminal His-tag kept for kinetics (thrombin site); for crystals His-tag cut off at introduced TEV site
# [2] = substrate: O=[N+]([O-])c1ccc(O[C@H]2O[C@H](CO)[C@H](O)[C@H](O)[C@H]2O)cc1; assay: purified protein; assay type: biochemical, Bacteroides fragilis; conditions: 50 mM sodium phosphate pH 7.5
# [3] = 50 mM sodium phosphate pH 7.5, 25.0 °C
molecule,measurement,setting,value
PpaGal (Pedobacter panaciterrae; W227Y),Km,[1]; [3],3.43 ± 0.34 mM
same,kcat,[1]; [3],0.25 ± 0.01 s⁻¹
PpaGal (Pedobacter panaciterrae),Km,[1]; 50 mM sodium phosphate pH 7.5,3.512 ± 0.413 mM
B1,Km,[2],6.950 ± 0.710 mM
same,kcat,[2],0.753 ± 0.082 s⁻¹
